The target in assay [1] is CFP-NtCDC48 (Nicotiana tabacum). Description: FRET or BRET. A general note: BRET reads energy transfer from a luciferase to a nearby fluorophore.
The target of assay [2] is NtCDC48, endogenous (Nicotiana tabacum (endogenous in cv. Xanthi cell suspensions)). Description: SDS-PAGE and immunoblot.
Assay [3] deals with His-NtCDC48 recombinant protein (Nicotiana tabacum). Description: SDS-PAGE and immunoblot. For orientation: A western blot detects proteins with antibodies after separation by electrophoresis.
Assay [4] concerns the target cytosolic ascorbate peroxidase (cAPX), endogenous (Nicotiana tabacum (endogenous in cv. Xanthi cell suspensions)). Description: native gel or EMSA. (In general: In EMSA bound probe runs differently from free probe, usually more slowly.)

cAPX-YFP (enzyme): the CFP donor fluorescence lifetime with the acceptor (2.97 ns for the donor alone) in assay [1] was determined as 2.41 ns.

Take NtCDC48, endogenous (natural protein): the stoichiometry N in assay [2] stood at 6. With “His-NtCDC48 recombinant protein (natural protein)”, in assay [3], the stoichiometry N was 6. With “cytosolic ascorbate peroxidase (cAPX), endogenous (enzyme)”, in assay [4], the stoichiometry N is 2.

The term stoichiometry N denotes the number of molecules, sites or subunits per partner or assembly.

For the origin of these results see paper PMC6506776.
